For three molecules, Kd results are on record in PMC10696396 (2023).

The chains are these.
B1: HilD (full-length, unfused) (natural protein)
chain: MENVTFVSNSHQRPAADNLQKLKSLLTNTRQQIKSQTQQVTIKNLYVSSFTLVCFRSGKLTISNNHDTIYCDEPGMLVLKKEQVVNVTLEEVNGHMDFDILEIPTQRLGALYALIPNEQQTKMAVPTEKAQKIFYTPDFPARREVFEHLKTAFSCTKDTSKGCSNCNNKSCIENEELIPYFLLFLLTAFLRLPESYEIILSSAQITLKERVYNIISSSPSRQWKLTDVADHIFMSTSTLKRKLAEEGTSFSDIYLSARMNQAAKLLRIGNHNVNAVALKCGYDSTSYFIQCFKKYFKTTPSTFIKMANH
B2: His6-SUMO-HilE (natural protein)
chain: MDAIYLKLDGIEGESRIKGFENQIKLIAYNHNPTKRESGEARGTYIGGLTLTKPVDLATPGLYEHYCNGKTVKEGVLTLCRRDKGAMLPFIIYTLTNVRISRMSNHGDAEGSATETVDLVYSHIRWDIPALASKSKTRRPLHRQALWR
modifications: RED-tris-NTA 2nd Generation dye bound to the His6 tag
B3: HilE (natural protein)
chain: B2 chain

What all share (test): MST
The assay “His6-SUMO-HilE” concerns the target B2.
The target of another assay is HilD K279M.
A further assay addresses HilD S216I/S218D.
The target of assay [1] is EYFP-HilD E102A/K264A/R267A.

Regarding B1, the Kd with His6-SUMO-HilE stood at 1890 nM.

As to B2, the equilibrium dissociation constant (Kd) was found to be 2120 nM with HilD K279M and 1160 nM in the assay with HilD S216I/S218D.

The molecule B3 returned a Kd in assay [1] of 1680 nM.
